# Test results published in patent US20100183556A1.
# Biological target: B-domain-deleted human coagulation factor VIII (human) (UniProt P00451)
# Assay: cell-based or functional assay
# UniProt P00451, sequence (P00451 other isoform, or with tags, fused parts or gaps limits assumed): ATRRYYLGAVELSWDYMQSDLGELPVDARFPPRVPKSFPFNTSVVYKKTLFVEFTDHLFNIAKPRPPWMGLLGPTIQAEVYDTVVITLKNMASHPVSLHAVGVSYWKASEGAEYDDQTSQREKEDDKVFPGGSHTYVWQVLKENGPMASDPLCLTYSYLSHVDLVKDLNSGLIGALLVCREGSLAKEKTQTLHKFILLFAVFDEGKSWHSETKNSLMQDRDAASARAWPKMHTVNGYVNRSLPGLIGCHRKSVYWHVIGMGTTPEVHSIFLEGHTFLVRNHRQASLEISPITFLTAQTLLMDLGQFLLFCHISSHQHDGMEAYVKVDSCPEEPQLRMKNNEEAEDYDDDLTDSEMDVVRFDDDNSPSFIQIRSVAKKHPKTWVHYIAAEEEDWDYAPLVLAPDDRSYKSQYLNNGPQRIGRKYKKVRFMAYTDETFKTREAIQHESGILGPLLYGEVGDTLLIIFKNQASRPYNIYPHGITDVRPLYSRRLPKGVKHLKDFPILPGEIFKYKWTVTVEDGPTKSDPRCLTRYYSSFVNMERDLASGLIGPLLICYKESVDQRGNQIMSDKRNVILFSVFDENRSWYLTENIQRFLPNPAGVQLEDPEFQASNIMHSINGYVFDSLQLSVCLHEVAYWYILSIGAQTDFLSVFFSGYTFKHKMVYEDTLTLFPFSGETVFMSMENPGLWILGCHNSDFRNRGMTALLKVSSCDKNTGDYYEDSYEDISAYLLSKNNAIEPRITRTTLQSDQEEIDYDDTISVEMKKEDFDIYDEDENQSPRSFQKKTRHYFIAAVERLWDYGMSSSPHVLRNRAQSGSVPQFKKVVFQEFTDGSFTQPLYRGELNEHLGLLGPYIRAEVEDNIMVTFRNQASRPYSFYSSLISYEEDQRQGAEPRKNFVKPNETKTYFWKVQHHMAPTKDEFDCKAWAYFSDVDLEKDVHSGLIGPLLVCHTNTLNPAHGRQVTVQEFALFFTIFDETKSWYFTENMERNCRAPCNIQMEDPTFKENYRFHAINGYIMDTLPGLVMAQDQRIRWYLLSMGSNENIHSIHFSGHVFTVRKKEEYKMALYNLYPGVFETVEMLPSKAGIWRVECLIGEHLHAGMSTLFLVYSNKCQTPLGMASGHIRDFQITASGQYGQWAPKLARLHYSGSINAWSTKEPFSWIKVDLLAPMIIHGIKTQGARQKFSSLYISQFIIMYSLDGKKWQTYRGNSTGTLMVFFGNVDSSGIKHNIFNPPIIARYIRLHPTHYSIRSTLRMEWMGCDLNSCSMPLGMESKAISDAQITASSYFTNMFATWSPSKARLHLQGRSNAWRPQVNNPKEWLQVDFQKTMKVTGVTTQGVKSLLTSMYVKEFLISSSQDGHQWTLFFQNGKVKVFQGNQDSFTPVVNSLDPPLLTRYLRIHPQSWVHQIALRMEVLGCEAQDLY
substance,measurement,value
full length von Willebrand factor (vWF) (from UniProt P04275 23-2813),FVIII activity (chromogenic assay) in supernatant of 293T cells co-transfected with pREP7-BDD.FVIII and pRex52,199
same,FVIII activity in supernatant of K562 cells co-transduced with vBDD.FVIII and vEx52 at a MOI of 1.5,28.3
mutant von Willebrand factor vWF23 (exons 24-46 of vWF deleted) (from UniProt P04275 23-2813),FVIII activity (chromogenic assay) in supernatant of 293T cells co-transfected with pREP7-BDD.FVIII and pRex23,28.9
same,FVIII activity in supernatant of K562 cells co-transduced with vBDD.FVIII and vEx23 at a MOI of 1.5,33.9
mutant von Willebrand factor vWF28 (exons 29-46 of vWF deleted) (from UniProt P04275 23-2813),FVIII activity (chromogenic assay) in supernatant of 293T cells co-transfected with pREP7-BDD.FVIII and pRex28,107
same,FVIII activity in supernatant of K562 cells co-transduced with vBDD.FVIII and vEx28 at a MOI of 1.5,53.3
